# Measured values from publication doi:10.1101/2020.11.27.401307.
# T1: LARP6C La-module (Arabidopsis thaliana, UniProt Q9LHL3 137-332)
# T1 sequence: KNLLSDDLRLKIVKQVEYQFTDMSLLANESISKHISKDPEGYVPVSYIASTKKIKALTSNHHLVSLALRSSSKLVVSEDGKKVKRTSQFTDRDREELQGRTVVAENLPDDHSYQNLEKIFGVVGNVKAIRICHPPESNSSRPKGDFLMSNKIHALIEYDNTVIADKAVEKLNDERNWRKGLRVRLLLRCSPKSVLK
# Columns and labels:
# LARP6C La-module [1] = molecular target: T1, LARP6C La-module; assay: EMSA
# LARP6C La-module [2] = molecular target: T1, LARP6C La-module; assay: ITC
# LARP6C La-module [3] = molecular target: T1, LARP6C La-module; assay: EMSA; remark: listed apart in the source
# LARP6C La-module [4] = molecular target: T1, LARP6C La-module; assay: EMSA; remark: listed apart in the source
Binder,Kd (LARP6C La-module [1]) [µM],Kd (LARP6C La-module [2]) [µM],Kd (LARP6C La-module [3]) [µM],binding result (LARP6C La-module [2]),further results
UCUCUCUGUUUCUUAUUCAUC (ssRNA) [B2],5.6 ± 0.2,3.7,1.9 ± 0.3,–,–
CCUCUCCCCCCCUCCCCCCUC (ssRNA) [B3],–,–,–,no binding,–
AAAAAAGAAGAAAAA (ssRNA) [A1],–,–,–,no binding,–
GAGAGAGGAGAAGAA (ssRNA) [A2],–,–,–,no binding,–
UUUUUUUUUUUUUUUUUUUU (ssRNA) [oligo(U20)],–,–,–,–,binding result (LARP6C La-module [4]): binds
CUUCUUUCUUUCUUUUUUGUU (ssRNA) [B1],3.5 ± 0.3,2.8,0.8 ± 0.1,–,–
